Measured values published in article PMC12629460.

What was measured:
Experiment in all cases: cryo-EM structure
[1] = target: PltBd2 in the endogenously expressed DiaT holotoxin purified from S. diarizonae (S. diarizonae)
[2] = target: PltBd1 recombinantly expressed in E. coli as part of a holotoxin (S. diarizonae)
[3] = target: PltBd2 recombinantly expressed in E. coli as part of the PltBd2 homopentameric holotoxin (S. diarizonae)

PltBd1 in the endogenously expressed DiaT holotoxin purified from S. diarizonae (natural protein)
stoichiometry N (PltBd1 per PltBd2 (3:2)) [1]: 1.5

PltBd1 recombinantly expressed in E. coli as part of a holotoxin (natural protein)
stoichiometry N [2]: 5

PltBd2 recombinantly expressed in E. coli as part of the PltBd2 homopentameric holotoxin (natural protein)
stoichiometry N [3]: 5
